This is an account of results in paper PMC10620760, “Phosphorylation controls spatial and temporal activities of motor‐PRC1 complexes to complete mitosis” (The EMBO Journal, 2023).

First the molecules themselves.
B1: PRC1_(1–168) (domain or fragment, human, UniProt O43663 1-168, looked up)
chain: MRRSEVLAEESIVCLQKALNHLREIWELIGIPEDQRLQRTEVVKKHIKELLDMMIAEEESLKERLIKSISVCQKELNTLCSELHVEPFQEEGETTILQLEKDLRTQVELMRKQKKERKQELKLLQEQDQELCEILCMPHYDIDSASVPSLEELNQFRQHVTTLRETKA
notes: Dimer by SEC-MALS (52 ± 2.5 kDa measured); source: E. coli BL21-CodonPlus (DE3)-RIL, purified (HisTrap, SEC)
B2: GST‐Kif4A_(1133–1232) (domain or fragment, human, UniProt O95239 1133-1232, looked up)
chain: TQDSEGSFKLEDPTEVTPGLSFFNPVCATPNSKILKEMCDVEQVLSKKTPPAPSPFDLPELKHVATEYQENKAPGKKKKRALASNTSFFSGCSPIEEEAH
notes: also called pAG127; source: E. coli BL21-CodonPlus (DE3)-RIL, purified
B3: PRC1_(1–168) MEE (domain or fragment, human, UniProt O43663 1-168, looked up)
chain: B1 chain with M54A, E57A, E58A
notes: Vector pET Duet 1; dimer by SEC-MALS; source: E. coli BL21-CodonPlus (DE3)-RIL, purified
B4: GST‐CENP‐E_(2605–2701) 2SD (domain or fragment, human, UniProt Q02224-1 2605-2701, looked up)
chain: SPKSPKVTGTASKKKQITPSQCKERNLQDPVPKEDPKSCFFDSRSKSLPDPHPVRYFDNSSLGLCPEVQNAGAESVDSQPGPWHASSGKDVPECKTQ
notes: also called pAG96; source: E. coli BL21-CodonPlus (DE3)-RIL, purified; not shown: GST, N-terminal, kept
B5: 647GST‐CENP‐E_(2639–2671) (domain or fragment, human, UniProt Q02224-1 2639-2671, looked up)
chain: SPKSCFFDSRSKSLPSPHPVRYFDNSSLGLCPE
modifications: cysteine pairing not given here; also: Alexa Fluor 647 label, site not given here (degree of labelling ~1:3), GST fusion
notes: also called pAG118

Data set [1] concerns the molecule itself. The data set is described as follows: SEC-MALS; 100 μl of 3.6 mg/ml PRC1(1-168) (152 μM) or 2.0 mg/ml PRC1(1-168) MEE (84 μM), Superdex-200 Increase 10/300 GL, 20 mM HEPES pH 7.4, 300 mM NaCl, 1 mM EDTA, 22°C.
Data set [2] concerns the target GST‐CENP‐E_(2605–2701) 6SD (human, UniProt Q02224-1 2605-2701, S2639D | S2647D | S2649D (printed S2469D in Table 1; S2649 in the text) | …). In words: ITC. Background: ITC needs no label: the signal is the heat of the interaction.
In data set [3] the target is B1. The data set is described as follows: SEC; proteins mixed at equimolar (1:1) ratio, Superdex 200 Increase 10/300 GL, 20 mM HEPES pH 7.5, 300 mM NaCl, 1 mM EDTA, 1 mM DTT; fractions on Coomassie-stained SDS-PAGE. To be noted: both partners purified. (In general: SEC sorts molecules by how far they enter the pores of the column.)
In data set [4] the target is B1. The data set is described as follows: ITC; PRC1(1-168) titrated into the CENP-E construct or peptide in the cell, 25°C, 20 mM HEPES pH 7.5, 150 mM NaCl, 0.005% Tween-20, 0.5 mM TCEP; one set of sites; concentrations calculated for monomers. To be noted: both partners purified.
Data set [5] deals with T1, PRC1_(1–168) (human, UniProt O43663 1-168).
T1 chain: B1 chain
In words: ITC.

Data set [6] deals with T2, GFP‐PRC1 (human, UniProt O43663 1-620).
T2 construct: protein regulator of cytokinesis 1 (PRC1), human; Purified recombinant GFP-PRC1 of the TIRF assay; probably full length
T2 sequence (looked up): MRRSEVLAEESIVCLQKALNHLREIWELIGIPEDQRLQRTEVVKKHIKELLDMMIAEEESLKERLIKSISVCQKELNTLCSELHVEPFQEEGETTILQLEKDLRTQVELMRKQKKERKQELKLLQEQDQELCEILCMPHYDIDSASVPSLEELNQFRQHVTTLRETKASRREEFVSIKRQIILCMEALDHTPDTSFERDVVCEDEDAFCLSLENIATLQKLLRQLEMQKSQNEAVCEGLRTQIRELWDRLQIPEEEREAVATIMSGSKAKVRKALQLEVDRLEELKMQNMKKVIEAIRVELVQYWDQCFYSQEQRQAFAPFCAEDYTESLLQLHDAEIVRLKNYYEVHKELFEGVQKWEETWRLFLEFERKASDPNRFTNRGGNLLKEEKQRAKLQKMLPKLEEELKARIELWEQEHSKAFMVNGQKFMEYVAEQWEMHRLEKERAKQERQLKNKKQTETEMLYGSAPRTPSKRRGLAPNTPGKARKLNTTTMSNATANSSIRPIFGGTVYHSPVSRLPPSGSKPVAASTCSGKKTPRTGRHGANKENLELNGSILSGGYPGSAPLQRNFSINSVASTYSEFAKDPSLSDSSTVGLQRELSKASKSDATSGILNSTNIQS
In words: TIRF microscopy, recruitment to microtubules in vitro; GMPCPP-stabilized rhodamine microtubules mixed with 647GST-CENP-E(2639-2671) alone, GFP-PRC1 alone or both, held on coverslips by anti-tubulin antibodies; 80 mM PIPES pH 6.9, 5 mM MgCl2, 1 mM DTT, oxygen scavenger. To be noted: both partners purified.

Changes are numbered by the printed parent chain. Ends that are not written are not given here.

On to B1, for which the stoichiometry N – broadly, a count of units in the complex or per binding partner – in data set [1] turned out to be 2. Further, the Kd – broadly, the equilibrium constant for the complex coming apart – in data set [2] is above 100 µM. For B2, the binding result in data set [3] was “binds”. As to B3, in data set [1], the “stoichiometry N” value is 2. With B4, the Kd in data set [4] is 2.4 µM.

In turn, PVRYFDNSSLG [CENP‐E peptide 2] returned a Kd in data set [5] of 64 µM. The same measure, in the same setting: the value for PKSCFFDSRSK [CENP‐E peptide 1] was 41.1 µM.

On to B5, for which the binding result in data set [6] is given as “binds”.
